Data as given in the supplement of paper PMC9732359.
± gives the uncertainty stated by the source.

Assay: protein stability index of a GFP-peptide fusion (yeast GPS) (PSI 1-4); higher = more stable; sorted into four equal gates, so the index is relative within each strain
Details: pdr5∆
Outline: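 Plasmids in a pooled yeast library fused tiled 17-residue yeast protein peptides downstream of GFP and also expressed Cherry. Mid-log cultures grown without leucine were sorted into four equal gates by GFP/Cherry fluorescence ratio. Each gate's plasmids were PCR-amplified and Illumina-sequenced, and reads were matched to strains by barcodes. The protein stability index is derived by multiplying each gate's read frequency by its gate number and summing the results.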

Sequence | protein stability index
FNRLKKQAHEKLDASKK [YIL149C/MLP2] | 3.08 ± 0.099
FNYGKLPLPPSVEWMKV [SIN4] | 2.93 ± 0.093
FPIALQWTGGRGGGHHS [FAS1] | 1.87 ± 0.23
FPKIDSLAQNDCNSALD [RPN5] | 2.64 ± 0.049
FPTDLEIFQLFTNPSVD [SWI1] | 2.88 ± 0.078

Same assay, conditions: san1∆

Sequence | protein stability index
ESLYDLIEFQPSQGVHY [MED6] | 2.91 ± 0.051
ESMLHLSIWIKNYPEYF [IRR1] | 2.25 ± 0.061
ESMSYLPDPILKNFLSY [MCD1] | 2.5 ± 0.14
ESNRQSVIVDSKVTVPP [ESC2] | 2.81 ± 0.079
ESSFIEIDDTEAEVTAE [BRR2] | 2.98 ± 0.11
ESSLTISLYFNDILDEL [ECM29] | 2.38 ± 0.07
ESTAGSASTSATGISGS [ECM29] | 3.12 ± 0.035
ESTETGYVIKVFNNGIV [DIS3] | 2.13 ± 0.14
ESWANQLTVCGAIIGWT [FAS2] | 1.2 ± 0.088
ESWFKALAGSEINWRHA [FAS1] | 2.63 ± 0.083
ETASFIPTKESLTRDFE [YIL149C/MLP2] | 2.41 ± 0.077
ETDHANTENNDPDIPMT [IRR1] | 2.81 ± 0.048
ETDNEMNGNGKPGIPRG [SIR3] | 3.39 ± 0.053
ETELFEPGVLNTGDGSI [ECM29] | 2.92 ± 0.12
ETFISSMTATADVLAMA [RIP1] | 3.13 ± 0.077
ETGKLLSGLAQRKTNGA [BRN1] | 2.97 ± 0.11
ETGNFSWASEGISKKTR [RPS8A] | 3.206 ± 0.028
ETISNVAKTAPNSNKTH [SNF2] | 2.96 ± 0.035
ETKADGILLETISVPQI [RRP6] | 2.51 ± 0.061
ETKVDELRYQSHILNSH [DSN1] | 2.79 ± 0.055
ETLKRDRKQSQATNATN [ARP7] | 2.39 ± 0.11
ETNAKPFSFSSATSTTE [YLR335W/NUP2] | 2.35 ± 0.053
ETPSRLLLSPDQWYCID [ITC1] | 3.16 ± 0.075
ETQVEVEKNEIGKMYDE [NNF1] | 2.98 ± 0.17

Sequence | protein stability index
EVAIRDVNLDVRIHSIQ [IRR1] | 2.49 ± 0.059
EVDEKPTETYSDVGGLD [RPT5] | 3.16 ± 0.058
EVFQLRIFVKEILEKCA [GAL11] | 2.19 ± 0.077
EVGDVCINELDNWNAPL [RPO31] | 3.21 ± 0.052
EVRGQVPVIESAGFETD [SNU114] | 1.49 ± 0.15
EVRRAAMLNLINDNNTR [YCG1] | 2.94 ± 0.11
EVSCKLLETITYVLNTW [YML103C/NUP188] | 2.07 ± 0.11
EVVQTGAKNIEITVVKP [PRE6] | 3.08 ± 0.052
EWDLYPQGFSSVERGRK [REC8] | 3.44 ± 0.086
EWFEQNNSEQDQEIVIQ [ISW2] | 2.45 ± 0.18
EWNGKSFQKKSNDKVVE [ISW2] | 3.01 ± 0.049
EYADNDEDKFKKLKPIV [PRP28] | 3.09 ± 0.09
EYIIAAIRKAPHNSKSL [RPN3] | 2.64 ± 0.045
EYQVIGRRLPTESVPEP [RPL20A] | 3.1 ± 0.13
EYTINLHKRLHGVSFKK [RPL31A] | 2.14 ± 0.11
FAAAPNDTSSGTNAMLP [SNF5] | 3.06 ± 0.096
FAFWNLLVKFIKFFWNN [YLR018C/POM34] | 1.7 ± 0.13
FAGSNNQPHQSQTPSFN [YOR098C/NUP1] | 2.73 ± 0.036
FAKFIHHIHHFEKKELQ [IRR1] | 2.18 ± 0.12
FAVALKNEPDYSKAKYP [CDC53] | 2.37 ± 0.098
FDDRGDVKVIMATNKIE [RPT2] | 3.11 ± 0.083
FDDSSRIVNHKTKLWGF [LIN1] | 3.1 ± 0.069
FDERIKFANQLHDEYLV [RPN3] | 1.45 ± 0.14
FDKIIKIREDHINKIPS [SRB8] | 2.96 ± 0.06

Sequence | protein stability index
FDMTNHYNDSQQLRTWK [SRB8] | 3 ± 0.078
FDQAGKKVSRRNARAAR [RPL13B] | 2.67 ± 0.28
FDRLNGNDTISKFYNMK [SSN2] | 3.19 ± 0.053
FDSTAFNATVDETKGFD [MED2] | 3.15 ± 0.063
FDTSIKLDIISDPESER [RPN14] | 2.59 ± 0.071
FDVMIDEESLVKYMPEQ [RPO21] | 1.86 ± 0.26
FEDSMQFKKLTHAQRTG [PRP8] | 3.07 ± 0.087
FEHGRTPAEMSRPATTT [FAS2] | 2.41 ± 0.09
FEPASRLQGIKLLDNIQ [COR1] | 2.64 ± 0.06
FFAYFIGWCKEDPKRRA [YJL039C/NUP192] | 2.61 ± 0.057
FFMSERSSRLHIVYSLL [YML103C/NUP188] | 1.55 ± 0.11
FFPYYVHTIIAGLDEDG [PRE7] | 3.35 ± 0.092
FGAPNNPNSTAITADLG [YGL172W/NUP49] | 3.03 ± 0.058
FGEWAGMTKSNIYNFSP [BRR2] | 2.89 ± 0.055
FGGSQPNSGTATTGGFG [YGR119C/NUP57] | 3.15 ± 0.18
FGKLAFPTRLGQGYRKV [YJL039C/NUP192] | 1.54 ± 0.18
FGLGYGDVGKNHITEFP [RPC31] | 3.38 ± 0.12
FGRKKRKGGPATAEKLP [RPT2] | 3.24 ± 0.075
FGRKNDRQCMIMDELLS [DIB1] | 2.49 ± 0.057
FGWLLSDNSVSVRLQVT [IRR1] | 1.19 ± 0.23
FHKQQAHFWKPVLNLDK [RPL28] | 2.76 ± 0.057
FHVGFIAKIKKVCECVC [RPO21] | 1.43 ± 0.11
FIKLQKIDIIELQKSLS [FAS1] | 2.04 ± 0.059
FIMASVGKYDKAIELLE [SRP72] | 2.54 ± 0.13

Sequence | protein stability index
FIPHGLKRRQVIEQCYL [SRB8] | 2.46 ± 0.1
FIRLPHWPLNWYLILSI [RGR1] | 1.33 ± 0.23
FKPSQEPEFHALSQSSL [RRI1] | 2.8 ± 0.042
FKTYRNETIIDNFSPHQ [SMC3] | 2.76 ± 0.21
FKYLLGVTDLFRHFIGI [ISW2] | 1.25 ± 0.12
FLDSMAQKYASIVGVDL [FAS2] | 1.96 ± 0.057
FLDSVHKQGSSYVAVLG [POP7] | 2.38 ± 0.057
FLERFDFYTRHHFTCEI [ITC1] | 2.31 ± 0.16
FLGALKYLPHAILKLLE [PRP8] | 2.55 ± 0.085
FLKLYVLVKWTRTIKQN [RGR1] | 2.38 ± 0.17
FLQDKVQIKDVNDRYQI [CSI1] | 1.05 ± 0.17
FLSKPSKALYPDYYMII [SNF2] | 2.19 ± 0.047
FLTGQFASNKKINDESS [YML103C/NUP188] | 2.44 ± 0.067
FLWPFKLSNPSGGWGVP [RPL7A] | 3.16 ± 0.1
FNELCDPESRTQSYNNQ [POP1] | 2.95 ± 0.11
FNLLILSLNKRIYDREP [YCG1] | 2.22 ± 0.13
FNPQDTEENIKGETNSE [RRP45] | 3.22 ± 0.19
FNQRDGEHEKSNILLNS [MED1] | 2.99 ± 0.17
FNRLKKQAHEKLDASKK [YIL149C/MLP2] | 3.41 ± 0.069
FNYGKLPLPPSVEWMKV [SIN4] | 2.93 ± 0.065
FPKIDSLAQNDCNSALD [RPN5] | 3.03 ± 0.05
FPTDLEIFQLFTNPSVD [SWI1] | 2.67 ± 0.07
